Measurements published in doi:10.1101/2023.09.29.560207 (bioRxiv, 2023).
Each block holds one molecule with its values, some of them ahead of it.

B2: His-MBP-RGNEF^1–275 (domain or fragment, human, UniProt Q8N1W1 1-275, looked up)
chain: MELSCSEAPLYGQMMIYAKFDKNVYLPEDAEFYFTYDGSHQRHVMIAERIEDNVLQSSVPGHGLQETVTVSVCLCSEGYSPVTMGSGSVTYVDNMACRLARLLVTQANRLTACSHQTLLTPFALTAGALPALDEELVLALTHLELPLEWTVLGSSSLEVSSHRESLLHLAMRWGLAKLSQFFLCLPGGVQALALPNEEGATPLDLALREGHSKLVEDVTNFQGRWSPSFSRVQLSEEASLHYIHSSETLTLTLNHTAEHLLEADIKLFRKYFWDR

What was measured:
His-MBP-RGNEF^1–275 = biological target: B2; assay: SPR
His-GST-TDP-43^wt = His-GST-TDP-43^wt (human, UniProt Q13148 1-414); assay: SPR
Sequence of His-GST-TDP-43^wt (Q13148 whole entry): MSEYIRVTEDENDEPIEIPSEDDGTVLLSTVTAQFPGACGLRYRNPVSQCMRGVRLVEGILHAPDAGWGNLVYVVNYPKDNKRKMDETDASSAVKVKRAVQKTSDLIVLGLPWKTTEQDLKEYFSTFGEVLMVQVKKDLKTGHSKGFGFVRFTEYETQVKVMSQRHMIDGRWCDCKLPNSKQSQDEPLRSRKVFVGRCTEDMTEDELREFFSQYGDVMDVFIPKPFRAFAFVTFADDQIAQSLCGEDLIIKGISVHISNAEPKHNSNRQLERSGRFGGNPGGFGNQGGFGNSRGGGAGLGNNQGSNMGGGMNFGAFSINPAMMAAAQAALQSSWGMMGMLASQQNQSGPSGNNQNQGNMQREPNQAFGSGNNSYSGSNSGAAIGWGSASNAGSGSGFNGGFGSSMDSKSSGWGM

- Kd (His-MBP-RGNEF^1–275): 4110 nM
Molecule: His-TDP-43^1–296 (from UniProt Q13148 1-261) (domain or fragment)

- binding result (His-MBP-RGNEF^1–275): binds
B1: His-RRM-1 (domain or fragment, human, UniProt Q13148 101-191, looked up)
chain: QKTSDLIVLGLPWKTTEQDLKEYFSTFGEVLMVQVKKDLKTGHSKGFGFVRFTEYETQVKVMSQRHMIDGRWCDCKLPNSKQSQDEPLRSR

Molecule: B2
- Kd (His-GST-TDP-43^wt): 1780 nM
